Results published in the MegaScale stability set (Tsuboyama et al. 2023).

B1: 5KPH (parent)
chain: EEKRQVKQVAKEKLLEQSPNSKVQVRRVQKQGNTIRVELELRTNGKKENYTVEVERQGNTWTVKRITRT

Variants of: B1
Experiment: folding stability dG (cDNA display proteolysis); higher = more stable
Settings: PBS, room temperature

Row | Variant | folding stability dG [kcal/mol]
1 | EEKRQVKQVAKEKLLEQSPNSKVQVRRVQKQGNTIDVELELRTNGKKENYTVEVERQGNTWTVKRITRT | 2.45
2 | EEKRQVKQVAKEKLLEQSPNSKVQVRRVQKQGNTILVELELRTNGKKENYTVEVERQGNTWTVKRITRT | 4.33
3 | EEKRQVKQVAKEKLLEQSPNSKVQVRRVQKQGNTIPVELELRTNGKKENYTVEVERQGNTWTVKRITRT | 0.344
4 | EEKRQVKQVAKEKLLEQSPNSKVQVRRVQKQGNTIKVELELRTNGKKENYTVEVERQGNTWTVKRITRT | 4.23
5 | EEKRQVKQVAKEKLLEQSPNSKVQVRRVQKQGNTICVELELRTNGKKENYTVEVERQGNTWTVKRITRT | 3.57
6 | EEKRQVKQVAKEKLLEQSPNSKVQVRRVQKQGNTIHVELELRTNGKKENYTVEVERQGNTWTVKRITRT | 4.04
7 | EEKRQVKQVAKEKLLEQSPNSKVQVRRVQKQGNTINVELELRTNGKKENYTVEVERQGNTWTVKRITRT | 3.7
8 | EEKRQVKQVAKEKLLEQSPNSKVQVRRVQKQGNTIGVELELRTNGKKENYTVEVERQGNTWTVKRITRT | 2.54
9 | EEKRQVKQVAKEKLLEQSPNSKVQVRRVQKQGNTIFVELELRTNGKKENYTVEVERQGNTWTVKRITRT | 4.35
10 | EEKRQVKQVAKEKLLEQSPNSKVQVRRVQKQGNTIAVELELRTNGKKENYTVEVERQGNTWTVKRITRT | 3.64
11 | EEKRQVKQVAKEKLLEQSPNSKVQVRRVQKQGNTIEVELELRTNGKKENYTVEVERQGNTWTVKRITRT | 3.54
12 | EEKRQVKQVAKEKLLEQSPNSKVQVRRVQKQGNTIIVELELRTNGKKENYTVEVERQGNTWTVKRITRT | 4.34
13 | EEKRQVKQVAKEKLLEQSPNSKVQVRRVQKQGNTIMVELELRTNGKKENYTVEVERQGNTWTVKRITRT | 4.23
14 | EEKRQVKQVAKEKLLEQSPNSKVQVRRVQKQGNDIRVELELRTNGKKENYTVEVERQGNTWTVKRITRT | 2.93
15 | EEKRQVKQVAKEKLLEQSPNSKVQVRRVQKQGNVIRVELELRTNGKKENYTVEVERQGNTWTVKRITRT | 4.08
16 | EEKRQVKQVAKEKLLEQSPNSKVQVRRVQKQGNKIRVELELRTNGKKENYTVEVERQGNTWTVKRITRT | 3.4
17 | EEKRQVKQVAKEKLLEQSPNSKVQVRRVQKQGNSIRVELELRTNGKKENYTVEVERQGNTWTVKRITRT | 3.59
18 | EEKRQVKQVAKEKLLEQSPNSKVQVRRVQKQGNQIRVELELRTNGKKENYTVEVERQGNTWTVKRITRT | 3.38
19 | EEKRQVKQVAKEKLLEQSPNSKVQVRRVQKQGNAIRVELELRTNGKKENYTVEVERQGNTWTVKRITRT | 3.62
20 | EEKRQVKQVAKEKLLEQSPNSKVQVRRVQKQGNYIRVELELRTNGKKENYTVEVERQGNTWTVKRITRT | 3.92
21 | EEKRQVKQVAKEKLLEQSPNSKVQVRRVQKQGNPIRVELELRTNGKKENYTVEVERQGNTWTVKRITRT | 2.41
22 | EEKRQVKQVAKEKLLEQSPNSKVQVRRVQKQGNWIRVELELRTNGKKENYTVEVERQGNTWTVKRITRT | 3.65
23 | EEKRQVKQVAKEKLLEQSPNSKVQVRRVQKQGNIIRVELELRTNGKKENYTVEVERQGNTWTVKRITRT | 3.97
24 | EEKRQVKQVAKEKLLEQSPNSKVQVRRVQKQGNEIRVELELRTNGKKENYTVEVERQGNTWTVKRITRT | 2.99
25 | EEKRQVKQVAKEKLLEQSPNSKVQVRRVQKQGNCIRVELELRTNGKKENYTVEVERQGNTWTVKRITRT | 3.48
26 | EEKRQVKQVAKEKLLEQSPNSKVQVRRVQKQGNFIRVELELRTNGKKENYTVEVERQGNTWTVKRITRT | 3.81

Row | Variant | folding stability dG [kcal/mol]
27 | EEKRQVKQVAKEKLLEQSPNSKVQVRRVQKQGNRIRVELELRTNGKKENYTVEVERQGNTWTVKRITRT | 3.63
28 | EEKRQVKQVAKEKLLEQSPNSKVQVRRVQKQGNMIRVELELRTNGKKENYTVEVERQGNTWTVKRITRT | 3.85
29 | EEKRQVKQVAKEKLLEQSPNSKVQVRRVQKQGNLIRVELELRTNGKKENYTVEVERQGNTWTVKRITRT | 3.96
30 | EEKRQVKQVAKEKLLEQSPNSKVQVRRVQKQGNNIRVELELRTNGKKENYTVEVERQGNTWTVKRITRT | 3.44
31 | EEKRQVKQVAKEKLLEQSPNSKVQVRRVQKQGNGIRVELELRTNGKKENYTVEVERQGNTWTVKRITRT | 3.44
32 | EEKRQVKQVAKEKLLEQSPNSKVQVRRVQKQGNHIRVELELRTNGKKENYTVEVERQGNTWTVKRITRT | 3.57
33 | EEKRQVKQVAKEKLLEQSPNSKVQVRRVQKQQNTIRVELELRTNGKKENYTVEVERQGNTWTVKRITRT | 3.04
34 | EEKRQVKQVAKEKLLEQSPNSKVQVRRVQKQRNTIRVELELRTNGKKENYTVEVERQGNTWTVKRITRT | 3.03
35 | EEKRQVKQVAKEKLLEQSPNSKVQVRRVQKQYNTIRVELELRTNGKKENYTVEVERQGNTWTVKRITRT | 3.13
36 | EEKRQVKQVAKEKLLEQSPNSKVQVRRVQKQVNTIRVELELRTNGKKENYTVEVERQGNTWTVKRITRT | 2.74
37 | EEKRQVKQVAKEKLLEQSPNSKVQVRRVQKQNNTIRVELELRTNGKKENYTVEVERQGNTWTVKRITRT | 3.26
38 | EEKRQVKQVAKEKLLEQSPNSKVQVRRVQKQWNTIRVELELRTNGKKENYTVEVERQGNTWTVKRITRT | 3.21
39 | EEKRQVKQVAKEKLLEQSPNSKVQVRRVQKQTNTIRVELELRTNGKKENYTVEVERQGNTWTVKRITRT | 2.6
40 | EEKRQVKQVAKEKLLEQSPNSKVQVRRVQKQPNTIRVELELRTNGKKENYTVEVERQGNTWTVKRITRT | 2.45
41 | EEKRQVKQVAKEKLLEQSPNSKVQVRRVQKQMNTIRVELELRTNGKKENYTVEVERQGNTWTVKRITRT | 2.99
42 | EEKRQVKQVAKEKLLEQSPNSKVQVRRVQKQSNTIRVELELRTNGKKENYTVEVERQGNTWTVKRITRT | 2.97
43 | EEKRQVKQVAKEKLLEQSPNSKVQVRRVQKQGVTIRVELELRTNGKKENYTVEVERQGNTWTVKRITRT | 3.4
44 | EEKRQVKQVAKEKLLEQSPNSKVQVRRVQKQGITIRVELELRTNGKKENYTVEVERQGNTWTVKRITRT | 3.38
45 | EEKRQVKQVAKEKLLEQSPNSKVQVRRVQKQGFTIRVELELRTNGKKENYTVEVERQGNTWTVKRITRT | 3.67
46 | EEKRQVKQVAKEKLLEQSPNSKVQVRRVQKQGHTIRVELELRTNGKKENYTVEVERQGNTWTVKRITRT | 3.53
47 | EEKRQVKQVAKEKLLEQSPNSKVQVRRVQKQGSTIRVELELRTNGKKENYTVEVERQGNTWTVKRITRT | 3.88
48 | EEKRQVKQVAKEKLLEQSPNSKVQVRRVQKQGPTIRVELELRTNGKKENYTVEVERQGNTWTVKRITRT | 3.55
49 | EEKRQVKQVAKEKLLEQSPNSKVQVRRVQKQGKTIRVELELRTNGKKENYTVEVERQGNTWTVKRITRT | 3.75
50 | EEKRQVKQVAKEKLLEQSPNSKVQVRRVQKQGYTIRVELELRTNGKKENYTVEVERQGNTWTVKRITRT | 3.5
51 | EEKRQVKQVAKEKLLEQSPNSKVQVRRVQKQGQTIRVELELRTNGKKENYTVEVERQGNTWTVKRITRT | 3.71
52 | EEKRQVKQVAKEKLLEQSPNSKVQVRRVQKQGMTIRVELELRTNGKKENYTVEVERQGNTWTVKRITRT | 3.74

Row | Variant | folding stability dG [kcal/mol]
53 | EEKRQVKQVAKEKLLEQSPNSKVQVRRVQKQGRTIRVELELRTNGKKENYTVEVERQGNTWTVKRITRT | 3.74
54 | EEKRQVKQVAKEKLLEQSPNSKVQVRRVQKQGDTIRVELELRTNGKKENYTVEVERQGNTWTVKRITRT | 3.9
55 | EEKRQVKQVAKEKLLEQSPNSKVQVRRVQKQGWTIRVELELRTNGKKENYTVEVERQGNTWTVKRITRT | 3.36
56 | EEKRQVKQVAKEKLLEQSPNSKVQVRRVQKQGLTIRVELELRTNGKKENYTVEVERQGNTWTVKRITRT | 3.58
57 | EEKRQVKQVAKEKLLEQSPNSKVQVRRVQKQGCTIRVELELRTNGKKENYTVEVERQGNTWTVKRITRT | 3.22
58 | EEKRQVKQVAKEKLLEQSPNSKVQVRRVQKQGATIRVELELRTNGKKENYTVEVERQGNTWTVKRITRT | 3.79
59 | EEKRQVKQVAKEKLLEQSPNSKVQVRRVQKQGGTIRVELELRTNGKKENYTVEVERQGNTWTVKRITRT | 3.58
60 | EEKRQVKQVAKEKLLEQSPNSKVQVRRVQKQGTTIRVELELRTNGKKENYTVEVERQGNTWTVKRITRT | 3.82
61 | EEKRQVKQVAKEKLLEQSPNSKVQVRRVQKQGETIRVELELRTNGKKENYTVEVERQGNTWTVKRITRT | 3.68
62 | EEKRQVKQVAKEKLLEQSPNSKVQVRRVQKQGNTRRVELELRTNGKKENYTVEVERQGNTWTVKRITRT | 2.6
63 | EEKRQVKQVAKEKLLEQSPNSKVQVRRVQKQGNTGRVELELRTNGKKENYTVEVERQGNTWTVKRITRT | 2.57
64 | EEKRQVKQVAKEKLLEQSPNSKVQVRRVQKQGNTFRVELELRTNGKKENYTVEVERQGNTWTVKRITRT | 4.81
65 | EEKRQVKQVAKEKLLEQSPNSKVQVRRVQKQGNTERVELELRTNGKKENYTVEVERQGNTWTVKRITRT | 1.93
66 | EEKRQVKQVAKEKLLEQSPNSKVQVRRVQKQGNTARVELELRTNGKKENYTVEVERQGNTWTVKRITRT | 3.73
67 | EEKRQVKQVAKEKLLEQSPNSKVQVRRVQKQGNTNRVELELRTNGKKENYTVEVERQGNTWTVKRITRT | 2.81
68 | EEKRQVKQVAKEKLLEQSPNSKVQVRRVQKQGNTLRVELELRTNGKKENYTVEVERQGNTWTVKRITRT | 3.71
69 | EEKRQVKQVAKEKLLEQSPNSKVQVRRVQKQGNTHRVELELRTNGKKENYTVEVERQGNTWTVKRITRT | 4.15
70 | EEKRQVKQVAKEKLLEQSPNSKVQVRRVQKQGNTMRVELELRTNGKKENYTVEVERQGNTWTVKRITRT | 4.13
71 | EEKRQVKQVAKEKLLEQSPNSKVQVRRVQKQGNTPRVELELRTNGKKENYTVEVERQGNTWTVKRITRT | 0.813
72 | EEKRQVKQVAKEKLLEQSPNSKVQVRRVQKQGNTVRVELELRTNGKKENYTVEVERQGNTWTVKRITRT | 3.81
73 | EEKRQVKQVAKEKLLEQSPNSKVQVRRVQKQGNTTRVELELRTNGKKENYTVEVERQGNTWTVKRITRT | 3.82
74 | EEKRQVKQVAKEKLLEQSPNSKVQVRRVQKQGNTKRVELELRTNGKKENYTVEVERQGNTWTVKRITRT | 1.48
75 | EEKRQVKQVAKEKLLEQSPNSKVQVRRVQKQGNTCRVELELRTNGKKENYTVEVERQGNTWTVKRITRT | 3.39
76 | EEKRQVKQVAKEKLLEQSPNSKVQVRRVQKQGNTSRVELELRTNGKKENYTVEVERQGNTWTVKRITRT | 3.37
77 | EEKRQVKQVAKEKLLEQSPNSKVQVRRVQKQGNTDRVELELRTNGKKENYTVEVERQGNTWTVKRITRT | 1.2
78 | EEKRQVKQVAKEKLLEQSPNSKVQVRRVQKQGNTQRVELELRTNGKKENYTVEVERQGNTWTVKRITRT | 2.79
